# Target: wild-type AC fused to GFP (AC-GFP), encoded by plasmid pAC0-Gfp (Bordetella pertussis | not stated) (UniProt P0DKX7)
# Experiment: two-hybrid
substance,measurement,value
"calmodulin (CaM) with a 6-histidine tag at its N-terminus and a tetra-cysteine tag at its C-terminus, encoded by plasmid pTCam (from UniProt P0DP23 1-149) (natural protein)",cAMP,> 250 nmol/mg
same,ß gal (Rel. Units),106 Rel. Units

# From article PMC13334617
